Results reported in patent US20040091995A1.

Target: human carcinoembryonic antigen (CEA) on MC-38-CEA-2 cells (human) (UniProt P06731)
Experiment: FACS analysis of MC-38-CEA-2 tumor cells

Sequence of UniProt P06731 (P06731 35-702): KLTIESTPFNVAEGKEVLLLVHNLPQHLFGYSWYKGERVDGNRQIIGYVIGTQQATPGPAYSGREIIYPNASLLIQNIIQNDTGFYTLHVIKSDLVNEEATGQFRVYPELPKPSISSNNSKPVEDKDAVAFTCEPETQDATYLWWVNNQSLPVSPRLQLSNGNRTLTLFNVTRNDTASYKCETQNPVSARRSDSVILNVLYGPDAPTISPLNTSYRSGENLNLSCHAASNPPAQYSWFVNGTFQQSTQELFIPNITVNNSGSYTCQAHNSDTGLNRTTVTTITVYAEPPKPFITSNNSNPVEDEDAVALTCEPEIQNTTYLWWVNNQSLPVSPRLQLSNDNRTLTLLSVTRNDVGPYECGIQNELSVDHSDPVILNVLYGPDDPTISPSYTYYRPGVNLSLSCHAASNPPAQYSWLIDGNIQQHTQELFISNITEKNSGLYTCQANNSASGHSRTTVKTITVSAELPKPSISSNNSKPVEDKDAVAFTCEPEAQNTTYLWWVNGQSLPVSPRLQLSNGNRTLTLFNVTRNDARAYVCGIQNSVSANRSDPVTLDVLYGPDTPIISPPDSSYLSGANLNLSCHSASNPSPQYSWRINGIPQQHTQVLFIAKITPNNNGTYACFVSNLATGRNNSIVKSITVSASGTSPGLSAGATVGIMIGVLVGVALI

murine IgG2a anti-CEA MAb, COL-1 (antibody)
percent of cells positive (COL-1 binding) (% of the cells): > 85
